Reference: patent publication US20260201033A1 (LTZ THERAPEUTICS, published 2026)

T1: mouse CLEC5A (R&D Systems, Cat #: 8438-CL-050) (mouse, UniProt Q9R007 26-190, limits assumed)
T1 construct: Bought protein; also called recombinant mouse CLEC5A protein
T1 sequence: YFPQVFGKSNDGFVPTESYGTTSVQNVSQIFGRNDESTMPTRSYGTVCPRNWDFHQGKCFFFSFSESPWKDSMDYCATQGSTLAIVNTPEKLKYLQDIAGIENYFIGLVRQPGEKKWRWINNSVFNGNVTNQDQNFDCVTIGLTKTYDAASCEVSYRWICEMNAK

T2: Human C-type lectin domain family 5 member A (CLEC5A), endogenous on human monocytes and M0 macrophages (human, UniProt Q9NY25 1-188)
T2 construct: Endogenous CLEC5A on primary human monocytes and monocyte-derived M0 macrophages; also called MDL-1; M0 macrophages (CLEC5A+) cells
T2 sequence: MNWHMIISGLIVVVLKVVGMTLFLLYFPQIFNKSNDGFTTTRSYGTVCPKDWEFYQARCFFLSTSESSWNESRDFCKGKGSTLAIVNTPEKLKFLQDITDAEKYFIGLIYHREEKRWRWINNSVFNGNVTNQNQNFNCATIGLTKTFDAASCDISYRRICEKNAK

T3: Human CLEC5A His Tag protein (ACROBiosystems, Cat #: CLA-H5243) (human, UniProt Q9NY25 28-188, limits assumed)
T3 construct: Bought protein with a His tag; also called recombinant human CLEC5A protein
T3 sequence: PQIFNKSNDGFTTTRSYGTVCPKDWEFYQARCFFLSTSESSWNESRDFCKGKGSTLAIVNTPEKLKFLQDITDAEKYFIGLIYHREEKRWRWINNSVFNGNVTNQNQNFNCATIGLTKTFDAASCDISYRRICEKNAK

T4: recombinant human CLEC5A, His Tag (ACROBiosystems, Cat #: NC1-H52H4) (human, UniProt Q9NY25 28-188)
T4 construct: Analyte of the BLI assay; Its catalogue number differs from that of the ELISA antigen; also called human CLEC5A (BLI analyte)
T4 sequence: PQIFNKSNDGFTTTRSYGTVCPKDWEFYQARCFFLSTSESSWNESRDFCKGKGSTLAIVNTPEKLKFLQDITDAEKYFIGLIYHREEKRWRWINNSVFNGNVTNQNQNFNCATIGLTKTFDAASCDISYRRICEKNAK


Experiments:
[1] = molecular target: T1, mouse CLEC5A (R&D Systems, Cat #: …); experiment: ELISA, plate coated with mouse CLEC5A
Experimental: Protein antigen was aspirated, and wells were washed 3 times with 400 μL of wash buffer (0.05% Tween® 20 in PBS) using a plate washer. […] 100 μL of primary antibody was added to appropriate wells and incubated for 1 hour at room temperature. Primary antibody was aspirated, and wells were washed 3 times with 400 μL of wash buffer (0.05% Tween® 20 in PBS) using a plate washer. […] Secondary antibody was aspirated, and wells were washed 3 times with 400 μL of wash buffer (0.05% Tween® 20 in PBS) using a plate washer. […] 100 μL of Fisher 1N Sulfuric Acid (Cat #: SA212-2) stop solution was added to each well and the plate was read in a plate reader at 450 nm. For analysis, OD450 of each antibody was plotted using GraphPad Prism software (Version 9.4.1; GraphPad Software Inc.).

[2] = molecular target: T2, Human C-type lectin domain family 5 …; experiment: flow cytometry on human M0 macrophages, anti-human IgG PE
Experimental: About 50,000 M0 macrophages were incubated with serially diluted antibodies in FACS buffer (PBS+0.5% BSA) for 30 minutes on ice. […] For analysis, the mean fluorescence intensity (MFI of PE) of each antibody was determined and plotted using GraphPad Prism software (Version 9.4.1; GraphPad Software Inc.).

[3] = molecular target: T3, Human CLEC5A His Tag protein …; experiment: ELISA, plate coated with human CLEC5A
Experimental: Protein antigen was aspirated, and wells were washed 3 times with 400 μL of wash buffer (0.05% Tween® 20 in PBS) using a plate washer. Anti-CLEC5A antibodies were prepared as the primary antibody at 5 μg/mL and serially diluted 3-fold through 11 points (diluted concentrations) with reagent buffer (PBS+0.05% BSA). 100 μL of primary antibody was added to appropriate wells and incubated for 1 hour at room temperature. Primary antibody was aspirated, and wells were washed 3 times with 400 μL of wash buffer (0.05% Tween® 20 in PBS) using a plate washer. […] Secondary antibody was aspirated, and wells were washed 3 times with 400 μL of wash buffer (0.05% Tween® 20 in PBS) using a plate washer. […] 100 μL of Fisher 1N Sulfuric Acid (Cat #: SA212-2) stop solution was added to each well and the plate was read in a plate reader at 450 nm. For analysis, OD450 of each antibody was plotted using GraphPad Prism software (Version 9.4.1; GraphPad Software Inc.).

[4] = molecular target: T4, recombinant human CLEC5A, His Tag …; experiment: BLI, antibody 10 ug/ml captured on anti-human IgG Fc probe, analyte hCLEC5a; table row hCLEC5a 0.78 nM; all four rows print the same value
[5] = molecular target: T4, recombinant human CLEC5A, His Tag …; experiment: BLI, antibody 10 ug/ml captured on anti-human IgG Fc probe, analyte hCLEC5a; table row hCLEC5a 1.56 nM; all four rows print the same value
[6] = molecular target: T4, recombinant human CLEC5A, His Tag …; experiment: BLI, antibody 10 ug/ml captured on anti-human IgG Fc probe, analyte hCLEC5a; table row hCLEC5a 3.12 nM; all four rows print the same value
[7] = molecular target: T4, recombinant human CLEC5A, His Tag …; experiment: BLI, antibody 10 ug/ml captured on anti-human IgG Fc probe, analyte hCLEC5a; table row hCLEC5a 6.25 nM; all four rows print the same value

| EC50 [1] [nM] | EC50 [2] [nM] | EC50 [3] [nM] | Kd [4] [nM] | koff [4] [s⁻¹] | kon [4] [M⁻¹ s⁻¹] | Kd [5] [nM] | koff [5] [s⁻¹] | kon [5] [M⁻¹ s⁻¹] | Kd [6] [nM] | koff [6] [s⁻¹] | kon [6] [M⁻¹ s⁻¹] | Kd [7] [nM] | koff [7] [s⁻¹] | kon [7] [M⁻¹ s⁻¹] | Binder |
| --- | --- | --- | --- | --- | --- | --- | --- | --- | --- | --- | --- | --- | --- | --- | --- |
| 0.184 | 3.99 | – | – | – | – | – | – | – | – | – | – | – | – | – | 14A2, chimeric rabbit/human IgG1 anti-CLEC5A antibody (Fc-silenced) (antibody, V domains shown, also called ch14A2) VH: QSLEESGGGLVKPEGSLTLTCKASGFTLSSYYYMCWVRQAPGKGLEWIACIYAGSSGTTVYASWAKGRFTISKTSSTTVTLQMTSLTAADTATYLCARKLGDVGYGHTTYFNLWGPGTLVTVSS VL: ALVMTQTPSSVSAAVGGTVTIKCQASQNIYSTLAWYQQKPGQPPKLLMFDASDLASGVPSRFKGSGSGTEYTLTISDLEPADAATYFCQTYYDSGSDDLNAFGGGTEVVVK |
| – | 0.96 | 0.71 | 0.0631 | 8.96e-05 | 1.42e+06 | 0.0631 | 8.96e-05 | 1.42e+06 | 0.0631 | 8.96e-05 | 1.42e+06 | 0.0631 | 8.96e-05 | 1.42e+06 | 3A7, chimeric rabbit/human IgG1 anti-CLEC5A antibody (Fc-silenced) (antibody, V domains shown, also called ch3A7) VH: QSLEESGGDLVKPGASLTLTCTASGFSFSGMYWICWVRQAPGKGLEWIACIYTGSSTTGYASWAKGRFTISKTSSTTVTLQMTSLTAADTATHFCASPYGDSSHYRGLNLWGPGTLVTVSS VL: AVVMTQTPASVEAAVGGTVTINCQASQRINNYLSWFQQKPGQPPKLLIYGAATLASGVPSRFKGSGSGTEYTLTISDLEPADAATYYCQCTYGIPSSNYGFGGGTEVVVK |
| 0.12 | 9.8 | 0.31 | – | – | – | – | – | – | – | – | – | – | – | – | 6A5, chimeric rabbit/human IgG1 anti-CLEC5A antibody (Fc-silenced) (antibody, V domains shown, also called ch6A5) VH: QQQLEESGGGLVKPGGTLTLTCTASGFSFSSSYYMCWVRQAPGKGLELIACIYSSSGRTWYATWVNGRFTISRSTSLNTVDLKMTSLTAADTATYFCARSYAGYGGYGYAYFNLWGPGTLVTVSS VL: DIVMTQTPASVEAGVGGTVTIKCQASEDIYSSLAWYQQKAGQRPKLLIYDASTLASGVPSRFKGSGSGTEYTLTISGVQPDDAATYYCQNYYDSTGSGYGAAFGGGTEVVVK |
